Publication PMC6212398 (2018)
Read-outs that look alike come from different tables or passages of the source.

How the values were obtained:
Experiment in all cases: ITC
[1] = biological target: T1, Hsp27 alpha-crystallin domain (ACD, residues Q80–S176) (human, UniProt P04792 80-176)
[2] = biological target: Hsp27 GPG (isoleucine and valine of the IPV motif mutated to glycine) (human, UniProt P04792 1-205, isoleucine of the IPV (Ile179 as printed in p-0007) to glycine)
[3] = biological target: T1, Hsp27 alpha-crystallin domain (ACD, …); remark: listed apart in the source

T1 sequence (P04792 80-176): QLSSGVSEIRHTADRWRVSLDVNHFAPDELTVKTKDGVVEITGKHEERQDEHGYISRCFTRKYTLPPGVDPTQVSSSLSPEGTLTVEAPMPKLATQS
Hsp27 GPG (isoleucine and valine of the IPV motif mutated to glycine), sequence (P04792 other isoform, or with tags, fused parts or gaps with the stated changes): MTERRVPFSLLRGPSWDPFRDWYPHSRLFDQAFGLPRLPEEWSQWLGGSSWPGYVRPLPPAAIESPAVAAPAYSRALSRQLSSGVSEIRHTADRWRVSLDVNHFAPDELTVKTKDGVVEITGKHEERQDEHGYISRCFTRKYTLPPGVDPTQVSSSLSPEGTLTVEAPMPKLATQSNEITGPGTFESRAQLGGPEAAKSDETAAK

Kd [1] [µM] | Kd [2] [µM] | Kd [3] [µM] | Binder
4.23 |  |  | EITIAVTHE [Hsp27 IPV H peptide with the second X residue (Pro) of IXIXV mutated to alanine (EITIAVTHE)]
12.6 |  |  | EITAPVTHE (EITAPVTHE. The paper numbers the peptide from E176, so printed Ile179 (I of IPV) is UniProt I181. Peptide termini chemistry is not stated.) [Hsp27 IPV H peptide with Ile179 mutated to alanine]
 | 6.8 | 7.3 | EITIPVTHE [Hsp27 IPV H peptide (EITIPVTHE)]
9.43 |  |  | EITIPVAHE (synthetic 9-mer; alanine-scan variant of the His-containing IPV peptide … (gives EITIPVAHE). The T184 label fits UniProt numbering, not the shifted numbering printed in the text. Termini not stated) [T184A]
